± gives the standard deviation of the averaged measurements.
The sequences below were run on Saccharomyces cerevisiae (assay: protein stability index of tFT-peptide fusion (C-terminal peptide) (PSI (0-1 scale)); higher = more stable (slower turnover)). Settings: genetic background: wild type; temperature: 30 C.
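Further: PSI is a weighted mean of sequencing reads over stability bins, variants kept only with over 10 reads, mCherry proximal and sfGFP distal, peptide attached via GGGS linker.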

Row | Sequence | protein stability index
1 | SGLLSPHTHMFP | 0.598 ± 0.048
2 | SGLPRLLLVILP | 0.6104 ± 0.0031
3 | SGNSPTRDRLRE | 0.684 ± 0.16
4 | SGPTPCRSPRLL | 0.636 ± 0.051
5 | SGRGANGVPGGE | 0.602 ± 0.16
6 | SGRIYLVGLRYI | 0.538 ± 0.0068
7 | SGRTLLPPSLGD | 0.606 ± 0.025
8 | SGSFPSLALLSS | 0.642 ± 0.042
9 | SGSSRVGWLEGW | 0.676 ± 0.022
10 | SGSTRTEDDGAR | 0.652 ± 0.038
11 | SGTRARGKGVVC | 0.6421 ± 0.0024
12 | SGVHFFLRTGAL | 0.692 ± 0.016
13 | SHAAKRYNHPHS | 0.7333 ± 0.00094
14 | SHAGTEAGPGWM | 0.782 ± 0.2
15 | SHGLLTLRLALA | 0.586 ± 0.017
16 | SHPPPALVPLFK | 0.678 ± 0.016
17 | SHPPPTVPPAIP | 0.677 ± 0.013
18 | SHPSALPPISAG | 0.734 ± 0.071
19 | SHRDNEKPILSA | 0.75 ± 0.015
20 | SHSKSQRRFQTR | 0.637 ± 0.093
21 | SHVARFMDEFCM | 0.79 ± 0.038
22 | SICFWCKHWSDV | 0.72 ± 0.064
23 | SIFRVKQGKTNK | 0.5732 ± 0.0025
24 | SIGAGSSGVGQE | 0.685 ± 0.037
25 | SILEIFSQGTEM | 0.693 ± 0.01
26 | SILLPLPRLLPC | 0.606 ± 0.018

Row | Sequence | protein stability index
27 | SIPLYAKNSSLP | 0.722 ± 0.042
28 | SIQHGRFLTLSV | 0.585 ± 0.0093
29 | SIRPPPPSSFPA | 0.806 ± 0.069
30 | SISFSLPRPLPP | 0.688 ± 0.068
31 | SISLLIWLFSSC | 0.637 ± 0.05
32 | SISYCSAFGGID | 0.69655 ± 7.1e-05
33 | SISYSNLPSLFF | 0.75 ± 0.051
34 | SIVESRGRGFRL | 0.697 ± 0.18
35 | SIVFFLPPVSSS | 0.724 ± 0.089
36 | SIWVLLVPRQSI | 0.639 ± 0.11
37 | SKDVLPGDDNVI | 0.656 ± 0.073
38 | SKFNSLNNHRKG | 0.655 ± 0.033
39 | SKKDMWMFVGEG | 0.722 ± 0.032
40 | SKLAVWVGERGF | 0.759 ± 0.02
41 | SKLTKQQKRTKS | 0.665 ± 0.055
42 | SKLVSPGVPRTP | 0.78 ± 0.043
43 | SKNLKQTQKKKT | 0.808 ± 0.069
44 | SKPEEAGADLSD | 0.6 ± 0.086
45 | SKPPLPTRLPRP | 0.7056 ± 0.0032
46 | SKRQQQKITAQE | 0.67 ± 0.086
47 | SKTQRKQIIKKQ | 0.638 ± 0.056
48 | SLASSLHTYDLT | 0.661 ± 0.032
49 | SLDQRPSLSFKR | 0.663 ± 0.015
50 | SLFFFLFSPSCL | 0.691 ± 0.075
51 | SLFFSTVELFFV | 0.6707 ± 0.0053
52 | SLFPQIFFFFFA | 0.498 ± 0.0099

Row | Sequence | protein stability index
53 | SLFSPSQLQSFS | 0.718 ± 0.012
54 | SLGRLKSLRSAR | 0.685 ± 0.017
55 | SLGSTHRWPPVV | 0.6272 ± 0.0019
56 | SLKPHTCPPRPA | 0.57 ± 0.15
57 | SLLAVITSFPLR | 0.687 ± 0.012
58 | SLLGFAGSCLLG | 0.735 ± 0.1
59 | SLLPLHPPLTLP | 0.674 ± 0.19
60 | SLLPLSLLSSPF | 0.664 ± 0.0072
61 | SLLSSSALTASP | 0.65 ± 0.043
62 | SLLTQSPLLPPP | 0.777 ± 0.29
63 | SLNLFFYVNPRF | 0.686 ± 0.06
64 | SLPGAPSPPHPL | 0.744 ± 0.0095
65 | SLPPFPLHSFPV | 0.694 ± 0.24
66 | SLPPPPSPVSLF | 0.611 ± 0.07
67 | SLPPPRSLSFPF | 0.673 ± 0.011
68 | SLPRPPVPLLPS | 0.707 ± 0.017
69 | SLPRYPRRASHS | 0.757 ± 0.068
70 | SLPTPPLFPSFP | 0.731 ± 0.014
71 | SLQGLLSIVNYR | 0.78 ± 0.15
72 | SLQRLALLRGPP | 0.736 ± 0.05
73 | SLREEATLVRAR | 0.563 ± 0.019
74 | SLRMTVFTAPLS | 0.654 ± 0.007
75 | SLSDGGPSCPGV | 0.677 ± 0.032
76 | SLSFPPNTFSFP | 0.738 ± 0.059
77 | SLSFTFPLAPLL | 0.643 ± 0.12
78 | SLSLSFVLSSCS | 0.721 ± 0.014

Row | Sequence | protein stability index
79 | SLSPLPCTVLRL | 0.684 ± 0.05
80 | SLSPWRLPIGGR | 0.734 ± 0.035
81 | SLSQWTSPGLNI | 0.708 ± 0.091
82 | SLSSVAYAIIIL | 0.561 ± 0.021
83 | SLTYSDGCTKSI | 0.742 ± 0.043
84 | SLVLFRSCSFFS | 0.669 ± 0.024
85 | SLVLPIFRIVSF | 0.573 ± 0.039
86 | SLWIKRSPVFSF | 0.563 ± 0.014
87 | SLWTDGYIFVLE | 0.732 ± 0.016
88 | SLYRKTLCMAYS | 0.558 ± 0.019
89 | SMAFLNQRPGIL | 0.685 ± 0.017
90 | SMGGDTFILFAV | 0.67 ± 0.023
91 | SNAIKTEESKGE | 0.734 ± 0.023
92 | SNCARGNREFYW | 0.733 ± 0.058
93 | SNCRLCGFGYVE | 0.6966 ± 0.0062
94 | SNLHCLQRGYSV | 0.725 ± 0.011
95 | SNLLKQHKDLFL | 0.7162 ± 0.0027
96 | SNRQDHACGGSA | 0.687 ± 0.11
97 | SNTSRIQGGWLK | 0.699 ± 0.18
98 | SPANLGFKHSGR | 0.674 ± 0.021
99 | SPAPALFCPARF | 0.739 ± 0.022
100 | SPAPPPPVTPPL | 0.662 ± 0.013
101 | SPAPRPSPVPGL | 0.686 ± 0.015
102 | SPARLHLPPFSP | 0.717 ± 0.016
103 | SPASPNALPAAP | 0.741 ± 0.046
104 | SPCMLLAVPHRL | 0.728 ± 0.044

Row | Sequence | protein stability index
105 | SPCTSPARLKLP | 0.559 ± 0.063
106 | SPEGYLLSPRCT | 0.737 ± 0.049
107 | SPFLFPRTVVGA | 0.671 ± 0.11
108 | SPFLPAHPPPTA | 0.714 ± 0.065
109 | SPFLTPSSHPPS | 0.681 ± 0.03
110 | SPGFSPPFPPLS | 0.776 ± 0.011
111 | SPGLLPLALFSL | 0.678 ± 0.14
112 | SPGPTLLSPPSP | 0.691 ± 0.017
113 | SPGSSPPLLSPH | 0.761 ± 0.013
114 | SPHPLPRPTTRP | 0.708 ± 0.12
115 | SPHPPPSRLPPP | 0.709 ± 0.029
116 | SPHPPPSSPPPP | 0.674 ± 0.097
117 | SPHPTAPFVSTL | 0.68 ± 0.087
118 | SPHVAPRKLQVS | 0.56147 ± 0.00038
119 | SPLGAHPTRIVF | 0.6915 ± 0.00071
120 | SPLHASLPPVSL | 0.704 ± 0.025
121 | SPLISYQPPTDP | 0.725 ± 0.061
122 | SPLLLSSPRPSP | 0.735 ± 0.062
123 | SPLPLASPFGFP | 0.719 ± 0.033
124 | SPLPPPPAPFLP | 0.6762 ± 0.0028
125 | SPLPPPTPLPLV | 0.8075 ± 0.0021
126 | SPLPPSPPPLLF | 0.762 ± 0.17
127 | SPLSDPPPYRPP | 0.591 ± 0.028
128 | SPLTTFPPHRVS | 0.711 ± 0.014
129 | SPPAPPLALPPP | 0.737 ± 0.057
130 | SPPASFPLPPPP | 0.6802 ± 0.0015

Row | Sequence | protein stability index
131 | SPPCPFPTPACP | 0.7165 ± 0.002
132 | SPPCPLPLPPPP | 0.626 ± 0.057
133 | SPPGPLPPRRPF | 0.725 ± 0.074
134 | SPPHTGMLRLLT | 0.7 ± 0.063
135 | SPPLPARSQSSI | 0.708 ± 0.029
136 | SPPLPSPPTLRL | 0.701 ± 0.015
137 | SPPLRPPAPLVL | 0.631 ± 0.14
138 | SPPPAPPPPPQT | 0.66492 ± 0.00031
139 | SPPPAPRPPLPP | 0.709 ± 0.041
140 | SPPPFPHPHQLP | 0.726 ± 0.029
141 | SPPPILPSSPSS | 0.698 ± 0.087
142 | SPPPLDSFPFIT | 0.659 ± 0.051
143 | SPPPLHPPPPAL | 0.637 ± 0.046
144 | SPPPMPLPLIPL | 0.663 ± 0.066
145 | SPPPPGPLPPPS | 0.718 ± 0.038
146 | SPPPPILPCKPL | 0.716 ± 0.031
147 | SPPPPPFCPLPA | 0.646 ± 0.014
148 | SPPPPPPSYPAH | 0.772 ± 0.051
149 | SPPPPTLPPAYL | 0.6577 ± 0.0025
150 | SPPPPTPPPPPA | 0.718 ± 0.045
151 | SPPPSRHPPPRL | 0.708 ± 0.016
152 | SPPRLPPLAAPP | 0.676 ± 0.07
153 | SPPRPPRPPRRA | 0.599 ± 0.02
154 | SPPRSPPDFVPF | 0.684 ± 0.0088
155 | SPPRSVSVGVHK | 0.637 ± 0.03
156 | SPPSPAFTPAPF | 0.669 ± 0.077

Row | Sequence | protein stability index
157 | SPPTRAPISSIS | 0.733 ± 0.0087
158 | SPPVRLPSASTV | 0.681 ± 0.036
159 | SPPVTASLCLFS | 0.692 ± 0.016
160 | SPRFVPPPAILR | 0.558 ± 0.0088
161 | SPRFYSFRPSPP | 0.695 ± 0.019
162 | SPRGLQSAPSGI | 0.7399 ± 0.0057
163 | SPRPAPPRSTPP | 0.67 ± 0.063
164 | SPSAVPPALLYS | 0.747 ± 0.2
165 | SPSGLPLHFSFL | 0.704 ± 0.012
166 | SPSLPPLPRSPR | 0.68 ± 0.053
167 | SPSPPLPSPRPP | 0.594 ± 0.094
168 | SPSRPILRPRVV | 0.635 ± 0.02
169 | SPTPSPCIPSPP | 0.701 ± 0.0089
170 | SPTRALYISFFY | 0.655 ± 0.075
171 | SPYLGSALPPDR | 0.628 ± 0.07
172 | SQCGSLQIGRHL | 0.714 ± 0.052
173 | SQLERSNHGWVR | 0.651 ± 0.064
174 | SQMGRGRQRGDR | 0.741 ± 0.024
175 | SQSPPTSPAPHD | 0.706 ± 0.016
176 | SQTIRTGGLCHL | 0.886 ± 0.041
177 | SQWGRVTMNLCG | 0.706 ± 0.012
178 | SRAARLPLFYFD | 0.675 ± 0.014
179 | SRCSAGVASGVL | 0.636 ± 0.0069
180 | SRCSEPVGGGGA | 0.704 ± 0.085
181 | SRGAIGGSACFR | 0.652 ± 0.037
182 | SRGRILAVRNTT | 0.713 ± 0.021

Row | Sequence | protein stability index
183 | SRGSTGERGRGK | 0.669 ± 0.027
184 | SRIASKNRKRKR | 0.774 ± 0.024
185 | SRKKDEGEYHRK | 0.68 ± 0.036
186 | SRLPSPFPSPPL | 0.737 ± 0.019
187 | SRLRITIRNVHS | 0.629 ± 0.048
188 | SRPFLPPSPRPA | 0.757 ± 0.11
189 | SRPLLLLPCLLP | 0.643 ± 0.014
190 | SRPLPPPLPPPP | 0.628 ± 0.025
191 | SRPPSPHPLPPP | 0.656 ± 0.027
192 | SRRERALGQQPI | 0.679 ± 0.011
193 | SRRLAFSTVLPA | 0.664 ± 0.035
194 | SRRWRPDSSRIQ | 0.667 ± 0.1
195 | SRSHSPLCPSFA | 0.604 ± 0.026
196 | SRTLYSHLLFFP | 0.66 ± 0.0097
197 | SRTPLASTPPHR | 0.761 ± 0.11
198 | SRTSRGPPFSSS | 0.688 ± 0.043
199 | SRVEVEVKIGFQ | 0.6331 ± 0.0061
200 | SRVIFSQSLSVP | 0.654 ± 0.038
201 | SRVRTIVRNGSR | 0.777 ± 0.11
202 | SRVSRGEWGVGI | 0.659 ± 0.023
